The target of series [1] is T1, TasA (mature protein, residues 28 to 261) (Bacillus subtilis (strain 168), UniProt P54507).
T1 chain: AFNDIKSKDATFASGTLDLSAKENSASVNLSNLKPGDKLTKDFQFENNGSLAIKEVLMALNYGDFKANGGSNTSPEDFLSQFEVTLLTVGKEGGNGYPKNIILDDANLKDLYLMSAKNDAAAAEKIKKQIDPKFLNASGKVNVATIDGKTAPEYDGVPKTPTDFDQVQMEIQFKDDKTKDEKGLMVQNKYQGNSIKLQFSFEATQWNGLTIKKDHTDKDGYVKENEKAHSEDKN
As to the kind of experiment: AUC (sedimentation velocity); 150 mM NaCl at pH 7 (no ITC response at 50 mM NaCl, pH 7); TapA-induced TasA oligomerization.

Series [2] has as its target T2, TasA (mature protein, residues 28 to 261) (Bacillus subtilis, UniProt P54507 28-261).
T2 construct: Used unlabelled or isotope-labelled (2H,13C,15N; 2H,15N; [2-13C]-glycerol) according to the experiment; also called translocation-dependent antimicrobial spore component; source: monomer separated by gel filtration
T2 sequence (looked up): T1 chain
The series is described as follows: AUC; sedimentation velocity of mixtures: 100 µM TasA with TapA (100, 70, 10, 4, 2 or 1 µM), TapA variants (100 µM) or 250 µM peptide; 20 °C, 20 mM Na phosphate pH 7.0, 150 mM NaCl, 40,000 rpm, runs of 17 h. The settings on record: both partners purified.

Series [3] concerns the molecule itself. The series is described as follows: time course of 1H solution NMR signals of the monomer; one-dimensional 1H spectra over time after mixing; TasA at 125 or 250 µM with TapA or TapA variants (e.g. 5:1); legend: 20 °C, pH 7, 150 mM NaCl.
Series [4] deals with the molecule itself. The series is described as follows: SEC; gel filtration of TapA constructs, without DTT. (SEC sorts molecules by how far they enter the pores of the column.)

B1: TapA (mature protein, residues 44 to 253) (protein)
chain: AFHDIETFDVSLQTCKDFQHTDKNCHYDKRWDQSDLHISDQTDTKGTVCSPFALFAVLENTGEKLKKSKWKWELHKLENARKPLKDGNVIEKGFVSNQIGDSLYKIETKKKMKPGIYAFKVYKPAGYPANGSTFEWSEPMRLAKCDEKPTVPKKETKSDVKKENETTQKDIPEKTMKEETSQEAVTKEKETQSDQKESGEEDEKSNEADQ
For B1, the binding result in series [1] is “binds”.

B2: TapA_(44-190) (domain or fragment, B. subtilis 168, UniProt P40949 44-190, looked up)
chain: AFHDIETFDVSLQTCKDFQHTDKNCHYDKRWDQSDLHISDQTDTKGTVCSPFALFAVLENTGEKLKKSKWKWELHKLENARKPLKDGNVIEKGFVSNQIGDSLYKIETKKKMKPGIYAFKVYKPAGYPANGSTFEWSEPMRLAKCDE
notes: also called TapA without residues beyond E190; variant with deleted C terminus
For the molecule B2, the binding result in series [2] was “binds”.

B3: TasA_(28-239) (domain or fragment, Bacillus subtilis, UniProt P54507 28-239, looked up)
chain: AFNDIKSKDATFASGTLDLSAKENSASVNLSNLKPGDKLTKDFQFENNGSLAIKEVLMALNYGDFKANGGSNTSPEDFLSQFEVTLLTVGKEGGNGYPKNIILDDANLKDLYLMSAKNDAAAAEKIKKQIDPKFLNASGKVNVATIDGKTAPEYDGVPKTPTDFDQVQMEIQFKDDKTKDEKGLMVQNKYQGNSIKLQFSFEATQWNGLTIK
On to B3, for which the binding result in series [3] is “binds”.

B4: TapA_(60-190) (domain or fragment, B. subtilis 168, UniProt P40949 60-190, looked up)
chain: DFQHTDKNCHYDKRWDQSDLHISDQTDTKGTVCSPFALFAVLENTGEKLKKSKWKWELHKLENARKPLKDGNVIEKGFVSNQIGDSLYKIETKKKMKPGIYAFKVYKPAGYPANGSTFEWSEPMRLAKCDE
notes: TapA of Bacillus subtilis 168, residues 60 to 190; Odd number of cysteines (free C68)
Turning to B4, the “stoichiometry N” value in series [4] came to 2.

B5: TapA_(66-190) (domain or fragment, B. subtilis 168, UniProt P40949 66-190, looked up)
chain: KNCHYDKRWDQSDLHISDQTDTKGTVCSPFALFAVLENTGEKLKKSKWKWELHKLENARKPLKDGNVIEKGFVSNQIGDSLYKIETKKKMKPGIYAFKVYKPAGYPANGSTFEWSEPMRLAKCDE
notes: TapA of Bacillus subtilis 168, residues 66 to 190; Odd number of cysteines (free C68)
In the case of B5, the “stoichiometry N” value in series [4] was 2.

One may read the stoichiometry N as the number of molecules, sites or subunits per partner or assembly.

Source of the values: article PMC10151520, “TapA acts as specific chaperone in TasA filament formation by strand complementation” (Proceedings of the National Academy of Sciences of the …, 2023).
